# B1: 1746_BLA: recombinant fusion of phylomer CPP 1746 with β-lactamase (protein)
# chain: MASPLKPKKPKTQEKKKKQPPKPKKPKTQEKKKKQPPKPKRASSGSHHHHHHGATLEVLFQGPGGSHPETLVKVKDAEDQLGARVGYIELDLNSGKILESFRPEERFPMMSTFKVLLCGAVLSRIDAGQEQLGRRIHYSQNDLVEYSPVTEKHLTDGMTVRELCSAAITMSDNTAANLLLTTIGGPKELTAFLHNMGDHVTRLDRWEPELNEAIPNDERDTTTPAAMATTLRKLLTGELLTLASRQQLIDWMEADKVAGPLLRSALPAGWFIADKSGAGERGSRGIIAALGPDGKPSRIVVIYTTGSQATMDERNRQIAEIGASLIKHWQLGSASGTTGATSG
# Test system: CHO-K1 cells
# Test: cell fractionation and anti-β-lactamase immunoblotting
# Type: cell-based, Chinese hamster
# Conditions: 8 µM, 1.5 h at 37 °C, digitonin cytosol extraction, 4 µg aliquots, anti-β-lactamase antibody, Figure S1
# Protocol: Supplementary Information
# Supplementary Figures: β-Lactamase Tools for Establishing Cell Internalization and Cytosolic
# Delivery of Cell Penetrating Peptides
# Figure S1. Verification of cell penetrating peptides (CPP)-mediated β-lactamase internalization by immunoblotting. MW: molecular weight.
# Aliquots (4 µg) of cytosolic and membrane soluble CHO-K1 cell fractions from β-lactamase assays were separated by sodium dodecyl sulfate–polyacrylamide gel electrophoresis (SDS-PAGE) through a 4-12% (w/v) polyacrylamide Bis-Tris gel, transferred to polyvinylidene difluoride (PVDF) membrane, and immunoblotted. β-lactamase conjugated (e.g., 1746_SpyT/SpyC_BLA) or fused (e.g., 1746_BLA recombinant) to 1746c27 and 1746 Phylomer cell penetrating peptides (CPPs) was detected in the cytosolic fraction to varying extents, while TAT-conjugated β-lactamase was predominantly detected in the membrane fraction of cell lysates. […]
# delivered into the cytosol by the 1746 CPP. Internalization of unconjugated SpyC_BLA protein was not detected, either on its own (SpyC_BLA (no CPP)) or in the presence of 1746c27 peptide (1746c27, SpyC_BLA), illustrating there is no bystander uptake effect. […]
# Aliquots of extracted fractions (4 µg) were separated through a 4–12% Bis-Tris gel (Invitrogen, Carlsbad, CA, USA). Protein expression in the fractions was detected using monoclonal anti-β- […]
molecule,measurement,value
B1,β-lactamase detected in cytosolic and membrane cell fractions (immunoblot),very strong signal in the cytosolic fractions

# Reference: publication PMC6163455 (Biomolecules, 2018)
